According to paper PMC12199414, “A Self‐Assembling LYTAC Mediates CTGF Degradation and Remodels Inflammatory Tumor Microenvironment for Triple‐Negative Breast Cancer Therapy” (Advanced Science, 2025):

What was measured:
[1] = GSH response of NanoCLY (HPLC); type: physicochemical
Procedure: For in vitro experiments, NanoCLY (0.1 mg mL^−1) was incubated with varying concentrations of GSH (0, 2, 25 × 10^−5 M) in PBS at 37 °C for 6 h. After incubation, the aliquots were analyzed by NanoSight (Malvern Panalytical, UK), HPLC (Agilent, USA), and TEM (JEOL, Japan). For in vivo experiments, when tumor volume reached about 200 mm^3, mice were intratumorally injected with 50 µL NanoCLY (2.5 mg kg^−1), or NanoCLY (2.5 mg kg^−1) with a 20‐min preinjection of H2O2 (2.5 × 10^−2 M). Tumors were collected after 4 h for HPLC analysis.
(§1) For the DLS assay, NanoCLY solution was mixed with 50% mouse plasma and incubated for different time periods. After incubation, the aliquots were analyzed using DLS. For the NanoCLY stability assay under simulated plasma GSH conditions, NanoCLY solution was mixed with 1.5 × 10^−6 M GSH or 20% mouse plasma, and was incubated for different time periods. After incubation, the aliquots were diluted and analyzed by HPLC.

[2] = target: T1, CTGF (Homo sapiens, UniProt P29279); assay: ELISA of extracellular CTGF in culture media of TNBC cells; type: cell-based; details: in vitro, BT549 and MDA-MB-231 culture media, 12 h
T1 construct: endogenous in cells; host or cells: BT549 and MDA-MB-231 (human TNBC cell lines)
T1 sequence (P29279 27-349): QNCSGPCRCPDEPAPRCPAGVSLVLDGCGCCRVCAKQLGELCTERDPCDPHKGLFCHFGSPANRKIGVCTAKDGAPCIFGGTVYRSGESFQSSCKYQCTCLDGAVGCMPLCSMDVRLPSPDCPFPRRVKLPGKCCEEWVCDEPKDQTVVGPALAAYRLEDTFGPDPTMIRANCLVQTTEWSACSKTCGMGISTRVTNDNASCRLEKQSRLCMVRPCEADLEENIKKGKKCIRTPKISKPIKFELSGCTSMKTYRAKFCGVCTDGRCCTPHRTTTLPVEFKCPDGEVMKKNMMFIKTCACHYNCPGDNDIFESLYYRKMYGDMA
Procedure: BT549 and MDA‐MB‐231 cells were treated with various concentrations of CL8‐M6P3 or NanoCLY for 12 h. Extracellular CTGF protein level in conditioned media was quantified by a human CTGF ELISA kit following the manufacturer's instructions (ab261851, Abcam and CSB‐E07875h, Cusabio). Extracellular CCN1, CCN3, and CCN4 protein levels were quantified using respective ELISA kits (HY‐P7842, HY‐P701327, HY‐P78051, MCE) following the manufacturer's instructions (CSB‐EL015956HU, CSB‐EL026119HU, CSB‐E13884h, Cusabio). Additionally, BSP and β‐CTx levels in serum were quantified by ELISA kit following the manufacturer's instructions (BPE10823, BPE10438, lengton).

[3] = tested on: MDA‐MB‐231 tumor; assay: Orthotopic xenograft MDA‐MB‐231 tumor model; type: in vivo, BALB/c nude mice
Procedure: For the orthotopic xenograft MDA‐MB‐231 tumor model, 3 × 10^6 cells were injected into the fourth pair of breast pads on the left side of the female nude mice (4–6 weeks old). To evaluate the antitumor effect of NanoCLY in vivo, the mice were treated with 10 mg kg^−1 NanoCLY daily once the tumor volume reached ≈50 mm^3, with CL8 peptide (10 mg kg^−1, daily) and FG‐3019 (30 mg kg^−1, every 3 days) as the positive control group and PBS as negative control group. The dose selection and administration frequency of NanoCLY were based on both references to previously reported protein degrader studies with similar mechanisms and effective concentrations,^[ [28], [54], [58] ^] and our preliminary in vivo dose‐escalation experiments. […] Based on this, 10 mg kg^−1 was selected for subsequent experiments. As for FG‐3019, the 30 mg kg^−1 dose was chosen based on previous studies.^[ [43], [59] ^] To evaluate the advantages of degradation strategies in vivo, the mice were treated with 10 mg kg^−1 NanoCLY daily with Nano@CL8 (10 mg kg^−1, daily) and PBS as control group. To evaluate the antitumor effect of combination therapy in vivo, the mice were treated with NanoCLY (10 mg kg^−1, daily), PTX (5 mg kg^−1, every two days), and PTX plus NanoCLY. […]

[4] = Plasma stability assay; type: in vitro ADME; details: 50% mouse plasma (DLS) and 20% mouse plasma or 1.5 × 10^−6 M GSH (HPLC), different time periods, n = 3
Procedure: as §1

[5] = tested on: MDA‐MB‐231‐Luc cells; assay: Lung metastasis model; type: in vivo, BALB/c nude mice; details: 10 mg kg^−1 i.v. every 2 days, 12 times, bioluminescence day 12, 18, 24, n = 3
Procedure: Exponentially grown 5 × 10^5 MDA‐MB‐231‐Luc cells were suspended in 100 µL of PBS and intravenously injected into female nude BALB/c mice. The mice were randomly divided into […] (n = 3) and treated with PBS, 10 mg kg^−1 NanoCLY via intravenous injection every 2 days for 12 times in total. The growth of lung metastatic tumors was monitored by VISQUE In Vivo Elite after intraperitoneal injection of 20 mg kg^−1 D‐luciferin on day 12, day 18, and day 24. At the end of monitoring on day 24, the lungs were photographed and fixed, and H&E staining. Metastatic areas on the lung surface were quantified by ImageJ software.

[6] = Critical micelle concentration with pyrene; type: physicochemical; details: pyrene fluorescence I390/I380, aqueous solution, sonicated 2 h
Procedure: The CMC value of NanoCLY in an aqueous solution was estimated by pyrene. Pyrene with the final concentration of 6.08 mg L^−1 was added 100 µL to Eppendorf tubes and dried overnight, and was added with 500 µL of various concentrations of NanoCLY (0.001, 0.006, 0.0125, 0.025, 0.05, 0.2, 0.6 mg mL^−1), and sonicated for 2 h. After sonicating, the supernatant samples were collected, and recorded the intensity ratios of I390/I380 by microplate reader Cytation 5 (Biotek, USA). The crossing point of the two linear fittings of the logarithm of NanoCLY concentrations was set as the CMC value.

[7] = Stability of nanoparticles in PBS; type: physicochemical; details: PBS pH 7.4, 37 °C, n = 3

extracellular CTGF degraded [2]: ≈ 50%
Substance: C12-CPSAAHYL-PEG3-[Pra(M6P)βAla]3-NH2 [NanoCLY, CL8-M6P3 joined to a lauryl chain via disulfide; self-assembling GSH-responsive LYTAC nanoparticle]
stability under plasma-mimicking GSH ([1]; GSH 1.5 × 10⁻⁶ M, analytical HPLC 214 nm): remained stable | disulfide linker cleavage at TME-relevant GSH ([1]; GSH 2 × 10⁻⁵ and 2.5 × 10⁻⁴ M in PBS, 37 °C, 6 h, NanoCLY 0.1 mg mL^−1, analytical HPLC 214 nm): selective cleavage of the disulfide linker | tumor growth inhibition (TGI) ([3]; 10 mg kg^−1 daily i.v., n = 6): 59.62% and ≈ 60% | tumor inhibition rate ([3]; preliminary in vivo dose-escalation experiments, 10 mg kg^−1): over 50% | size and structural integrity under plasma conditions [4]: retained its size and structural integrity | lung colonization by MDA-MB-231 cells [5]: significantly reduced lung colonization | critical micelle concentration (CMC) [6]: 55.1 µg/mL | stability in PBS (size and PDI) [7]: at least 72 h
